Reference: publication doi:10.1101/774737

Biological target: dynein intermediate chain (DIC), endogenous, human iPSC-derived motor neurons (human (endogenous in iPSC-derived motor neurons)) (UniProt O14576)
Test: proximity ligation

UniProt O14576, sequence (O14576 whole entry): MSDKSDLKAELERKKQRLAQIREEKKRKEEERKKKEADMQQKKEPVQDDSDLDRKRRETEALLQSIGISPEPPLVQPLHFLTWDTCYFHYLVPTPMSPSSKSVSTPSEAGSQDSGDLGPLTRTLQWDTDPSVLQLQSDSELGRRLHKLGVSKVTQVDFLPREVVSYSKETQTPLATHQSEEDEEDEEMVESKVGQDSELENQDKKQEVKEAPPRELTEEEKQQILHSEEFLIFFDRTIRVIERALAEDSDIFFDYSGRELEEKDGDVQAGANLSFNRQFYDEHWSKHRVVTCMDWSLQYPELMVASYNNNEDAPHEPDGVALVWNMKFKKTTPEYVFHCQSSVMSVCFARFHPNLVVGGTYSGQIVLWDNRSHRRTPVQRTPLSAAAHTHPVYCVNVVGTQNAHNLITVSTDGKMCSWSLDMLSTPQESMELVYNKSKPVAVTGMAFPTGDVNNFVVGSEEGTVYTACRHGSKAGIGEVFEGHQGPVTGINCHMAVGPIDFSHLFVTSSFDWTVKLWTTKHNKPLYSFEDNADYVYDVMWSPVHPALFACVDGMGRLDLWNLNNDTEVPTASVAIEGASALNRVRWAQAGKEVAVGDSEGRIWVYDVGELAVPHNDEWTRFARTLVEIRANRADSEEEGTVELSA

Q: “CRMP4, endogenous, human iPSC-derived motor neurons (from UniProt Q14195 1-570) (natural protein)” was tested. Which PLA puncta (C9orf72 iPSC-derived MN distal axons, without peptides) did it give?
A: 8.9
